Reference: publication PMC2737084 (Biochemistry, 2009)

Target: the molecule itself
Test: SEC

B1: Pseudomonas aeruginosa bacterioferritin B (natural protein)
chain: not shown
B1 was tested, and the “stoichiometry N” value was 24.
